# In US20140045176:
# Key:
# Assay in all cases: cell_activity
# [1] = system: ZFN-224 R (CCR5) (Artificial Sequence); conditions: as ZFN pair; T7E1, sorted RFP+GFP+ HEK293; unsorted 12%
# [2] = system: CMAH-ZFN L (Artificial Sequence); conditions: as ZFN pair; T7E1, hygromycin-selected porcine ear cells; untreated 3.1%
# [3] = system: Z891 L (CCR5 ZFN) (Artificial Sequence); conditions: as ZFN pair; T7E1, sorted RFP+GFP+ HEK293; unsorted 0.8%
# [4] = system: Thumpd3 ZFN L (Artificial Sequence); conditions: as ZFN pair; T7E1, sorted RFP+GFP+ mouse iPS-derived fibroblasts; unsorted 0.5%
# [5] = system: CMAH-ZFN R (Artificial Sequence); conditions: as ZFN pair; T7E1, hygromycin-selected porcine ear cells; untreated 3.1%
# [6] = system: ZFN-224 L (CCR5) (Artificial Sequence); conditions: as ZFN pair; T7E1, sorted RFP+GFP+ HEK293; unsorted 12%
# [7] = system: Thumpd3 ZFN R (Artificial Sequence); conditions: as ZFN pair; T7E1, sorted RFP+GFP+ mouse iPS-derived fibroblasts; unsorted 0.5%
# [8] = system: Z891 R (CCR5 ZFN) (Artificial Sequence); conditions: as ZFN pair; T7E1, sorted RFP+GFP+ HEK293; unsorted 0.8%
# [9] = system: CCR5 TALEN R (Artificial Sequence); conditions: as TALEN pair; T7E1, sorted RFP+GFP+ HEK293; unsorted 0.5%; 30 C culture
# [10] = system: CCR5 TALEN L (Artificial Sequence); conditions: as TALEN pair; T7E1, sorted RFP+GFP+ HEK293; unsorted 0.5%; 30 C culture
sequence,measurement,setting,value
AAACTGCAAAAG (double strand) [ZFN-224_R half-site],activity,[1],69 % mutation
AAGCAGGACCGA (double strand) [CMAH-ZFN_L half-site],activity,[2],12.1 % mutation
ATAGATGATGGG (double strand) [Z891_L half-site],activity,[3],8.7 % mutation
CGAGCACGCCGC (double strand) [Thumpd3_L half-site],activity,[4],46 % mutation
CGAGGATGGTGG (double strand) [CMAH-ZFN_R half-site],activity,[5],12.1 % mutation
GATGAGGATGAC (double strand) [ZFN-224_L half-site],activity,[6],69 % mutation
GGAGACCGGAAG (double strand) [Thumpd3_R half-site],activity,[7],46 % mutation
GTCGGGGAGAAG (double strand) [Z891_R half-site],activity,[8],8.7 % mutation
TAGTTTCTGAACTTCTCCCC (double strand) [TALEN_R half-site],activity,[9],4.3 % mutation
TGCATCAACCCCATCATC (double strand) [TALEN_L half-site],activity,[10],4.3 % mutation
